From US20040110688 come the findings set out here.

Sequence of factor VIIIa (P00451 other isoform, or with tags, fused parts or gaps): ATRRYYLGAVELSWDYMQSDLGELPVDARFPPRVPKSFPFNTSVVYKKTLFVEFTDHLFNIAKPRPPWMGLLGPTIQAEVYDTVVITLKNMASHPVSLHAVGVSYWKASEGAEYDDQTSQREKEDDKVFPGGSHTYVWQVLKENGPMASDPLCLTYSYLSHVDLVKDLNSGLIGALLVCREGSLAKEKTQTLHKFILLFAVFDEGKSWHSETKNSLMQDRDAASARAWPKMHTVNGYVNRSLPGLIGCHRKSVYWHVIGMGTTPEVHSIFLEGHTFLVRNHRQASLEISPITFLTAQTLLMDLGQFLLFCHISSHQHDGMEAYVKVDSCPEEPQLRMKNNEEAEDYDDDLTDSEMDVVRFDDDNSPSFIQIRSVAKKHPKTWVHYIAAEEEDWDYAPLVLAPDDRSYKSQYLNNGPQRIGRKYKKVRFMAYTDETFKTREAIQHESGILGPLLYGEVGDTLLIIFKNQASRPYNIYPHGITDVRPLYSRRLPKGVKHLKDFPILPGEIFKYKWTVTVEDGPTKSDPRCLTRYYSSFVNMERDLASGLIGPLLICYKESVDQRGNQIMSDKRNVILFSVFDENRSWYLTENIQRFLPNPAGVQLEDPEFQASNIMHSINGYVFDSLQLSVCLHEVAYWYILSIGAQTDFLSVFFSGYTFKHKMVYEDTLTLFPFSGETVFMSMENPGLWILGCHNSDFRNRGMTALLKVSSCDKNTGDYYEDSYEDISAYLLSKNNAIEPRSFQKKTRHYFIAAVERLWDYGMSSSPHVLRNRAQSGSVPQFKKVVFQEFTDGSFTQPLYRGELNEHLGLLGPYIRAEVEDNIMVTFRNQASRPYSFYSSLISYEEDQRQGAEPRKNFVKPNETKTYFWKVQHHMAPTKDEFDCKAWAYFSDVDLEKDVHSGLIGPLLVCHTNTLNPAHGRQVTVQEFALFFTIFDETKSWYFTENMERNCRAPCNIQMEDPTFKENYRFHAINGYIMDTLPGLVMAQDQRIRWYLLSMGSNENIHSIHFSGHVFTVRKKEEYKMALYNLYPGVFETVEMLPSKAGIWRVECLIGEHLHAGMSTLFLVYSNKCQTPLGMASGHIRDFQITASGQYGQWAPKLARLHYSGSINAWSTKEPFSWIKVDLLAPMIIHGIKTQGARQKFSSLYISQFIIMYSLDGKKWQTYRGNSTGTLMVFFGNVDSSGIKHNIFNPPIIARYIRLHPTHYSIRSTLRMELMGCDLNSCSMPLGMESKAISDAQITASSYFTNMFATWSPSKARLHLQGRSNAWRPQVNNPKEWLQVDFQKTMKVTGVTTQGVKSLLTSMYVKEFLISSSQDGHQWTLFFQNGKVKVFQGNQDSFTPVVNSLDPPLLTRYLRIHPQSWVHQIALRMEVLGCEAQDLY

This data set has as its target factor VIIIa (UniProt P00451).
For IXaD332Y, the “X-activation rate, PL-minus system (14 nM VIIIa, 400 nM X)” value (“X-activation rate, PL-minus system” below) is “NM”; the “X-activation rate, PL-plus system (70 pM VIIIa, 0.5 nM IXa, 15 nM X)” value (“X-activation rate, PL-plus system” for short) is on record as “NM”; the “rate of factor X activation with phospholipid, factor VIIIa increased from 70 pM to 14 nM” value is “IXaD332Y ~4.1 nM/min”.
Consider IXaL330I, for which the X-activation rate, PL-minus system (14 nM VIIIa, 400 nM X) was found to be 0.94 nM/min and the X-activation rate, PL-plus system (70 pM VIIIa, 0.5 nM IXa, 15 nM X) was 0.95 nM/min.
For the substance IXaL337I, the “X-activation rate, PL-minus system” value is given as “NM”; the “X-activation rate, PL-plus system” value is recorded as “NM”; the “rate of factor X activation with phospholipid, factor VIIIa increased from 70 pM to 14 nM” value is listed as “IXaL337I ~3.2 nM/min”.
As to IXaPCEGF1, the X-activation rate, PL-minus system (14 nM VIIIa, 400 nM X) was determined as 2.71 nM/min and the “X-activation rate, PL-plus system” value is reported as “NM”.
Turning to IXaQ50P, the X-activation rate, PL-minus system (14 nM VIIIa, 400 nM X) stood at 2.81 nM/min and the “X-activation rate, PL-plus system” value is listed as “NM”.
As for IXaR333L, the “X-activation rate, PL-minus system” value is “NM”; the “X-activation rate, PL-plus system” value was “NM”; the “rate of factor X activation with phospholipid, factor VIIIa increased from 70 pM to 14 nM” value is recorded as “IXaP333L ~2.7 nM/min”.
Regarding IXaR333Q, the “X-activation rate, PL-minus system” value is listed as “NM”; the “X-activation rate, PL-plus system” value is reported as “NM”; the “rate of factor X activation with phospholipid, factor VIIIa increased from 70 pM to 14 nM” value is “IXaR333Q ~2.4 nM/min”.
IXaR338Q: the X-activation rate, PL-minus system (14 nM VIIIa, 400 nM X) was 2.22 nM/min and the X-activation rate, PL-plus system (70 pM VIIIa, 0.5 nM IXa, 15 nM X) stood at 2.53 nM/min.
Consider IXaT335A, for which the X-activation rate, PL-minus system (14 nM VIIIa, 400 nM X) was determined as 1.83 nM/min and the X-activation rate, PL-plus system (70 pM VIIIa, 0.5 nM IXa, 15 nM X) is 1.92 nM/min.
